This note sets out measurements from patent US6383753 (REGENTS OF THE UNIVERSITY OF MICHIGAN, dated 2002).

The target in experiment [1] is T1, yeast ENIP1 protein fragment (composed of amino acids 170-469) (S. cerevisiae, UniProt Q99207 170-469).
T1 construct: Truncation construct used in the yeast two-hybrid system
T1 sequence: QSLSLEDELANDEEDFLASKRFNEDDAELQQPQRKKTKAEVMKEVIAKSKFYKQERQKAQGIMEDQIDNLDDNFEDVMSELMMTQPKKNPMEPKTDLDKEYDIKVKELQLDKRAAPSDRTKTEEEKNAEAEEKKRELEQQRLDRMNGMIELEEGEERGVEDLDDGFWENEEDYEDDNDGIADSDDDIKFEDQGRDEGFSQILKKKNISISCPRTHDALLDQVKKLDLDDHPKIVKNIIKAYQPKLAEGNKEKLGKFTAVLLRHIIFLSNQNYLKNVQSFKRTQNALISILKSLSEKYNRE
In words: yeast two-hybrid.

In experiment [2] the target is T2, yeast Emg1-Nuclear Interacting Protein 1 (ENIP1), S. cerevisiae gene locus YDL148c (S. cerevisiae, UniProt Q99207 1-810, limits assumed).
T2 construct: 810 amino acids; also called yeast ENIP1; yENIP
T2 sequence: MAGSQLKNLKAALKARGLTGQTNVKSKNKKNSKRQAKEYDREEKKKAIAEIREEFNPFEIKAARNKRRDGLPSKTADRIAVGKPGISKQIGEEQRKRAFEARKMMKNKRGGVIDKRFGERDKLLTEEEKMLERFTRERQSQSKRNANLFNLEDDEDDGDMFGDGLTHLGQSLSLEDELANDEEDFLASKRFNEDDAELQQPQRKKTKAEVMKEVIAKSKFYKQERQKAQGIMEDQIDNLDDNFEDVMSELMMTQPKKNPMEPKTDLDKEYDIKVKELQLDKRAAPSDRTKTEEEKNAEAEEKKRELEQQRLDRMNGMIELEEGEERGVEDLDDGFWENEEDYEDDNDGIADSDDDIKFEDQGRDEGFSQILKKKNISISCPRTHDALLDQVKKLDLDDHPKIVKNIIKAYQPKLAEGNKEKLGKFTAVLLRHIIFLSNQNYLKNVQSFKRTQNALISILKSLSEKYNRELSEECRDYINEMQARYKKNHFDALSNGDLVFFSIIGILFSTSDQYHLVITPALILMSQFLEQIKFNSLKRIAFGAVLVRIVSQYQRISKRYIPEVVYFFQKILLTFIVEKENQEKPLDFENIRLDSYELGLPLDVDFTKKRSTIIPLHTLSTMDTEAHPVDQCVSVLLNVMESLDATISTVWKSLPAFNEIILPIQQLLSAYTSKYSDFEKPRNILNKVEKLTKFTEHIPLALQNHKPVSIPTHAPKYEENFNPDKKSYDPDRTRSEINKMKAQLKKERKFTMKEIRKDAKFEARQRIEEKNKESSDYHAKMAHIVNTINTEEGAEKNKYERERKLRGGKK
Briefly: yeast two-hybrid, cell growth assay on selective (no histidine) medium.

B1: mouse Emg1 protein (other)
chain: MSAASGGFQPRERRFSVQEQDWETTPPKKLRLGAGSKCGGRRLIVVLEGASLETVKVGKTYELLNCDRHKSMLLKNGRDPGEVRPDITHQSLLMLMDSPLNRAGLLQVYIHTQKNVLIEVNPQTRIPRTFDRFCGLMVQLLHKLSVRAADGPQKLLKVIKNPVSDHFPVGCMKIGTSFSVEDISDIRELVPSSDPVVFVVGAFAHGKVSVEYTEKMVSISNYPLSAALTCAKVTTAFEEVWGVI
notes: Used as a two-hybrid fusion; also called mEmg1; murine Emg1
For the molecule B1, the binding result in experiment [1] and in experiment [2] was “binds” throughout.
